Data on one protein can be found in article doi:10.1101/2023.12.22.572978 (bioRxiv, 2023).

The data set deals with the molecule itself. Kind of data set: FRET or BRET.

B1: InlB321 K280C mutant, fluorophore-labeled (T variant) (domain or fragment, Listeria monocytogenes, UniProt P0DQD2 36-321, looked up)
chain: ETITVPTPIKQIFSDDAFAETIKDNLKKKSVTDAVTQNELNSIDQIIANNSDIKSVQGIQYLPNVTKLFLNGNKLTDIKPLANLKNLGWLFLDENKVKDLSSLKDLKKLKSLSLEHNGISDINGLVHLPQLESLYLGNNKITDITVLSRLTKLDTLSLEDNQISDIVPLAGLTKLQNLYLSKNHISDLRALAGLKNLDVLELFSQEALNKPINHQSNLVVPNTVKNTDGSLVTPEIISDDGDYECPNVKWHLPEFTNEVSFIFYQPVTIGKAKARFHGRVTQPLKE
modifications: Cy3B (donor) or ATTO 647N (acceptor) attached by maleimide chemistry to the single cysteine at position 280
For B1, the binding result was “binds”.
